The experiment has as its target biotinylated mIL-12 (mIL-12a-AviTag-His6 and untagged mIL-12b) (mouse) (UniProt P43431). The experiment can be described thus: BLI. A general note: Biolayer interferometry detects binding as a change in optical thickness at a sensor tip.

Experimental findings from doi:10.1101/2023.03.13.532366 are described below.

Sequence of biotinylated mIL-12 (mIL-12a-AviTag-His6 and untagged mIL-12b) (mouse) (P43431 23-215, chain 1 of 2): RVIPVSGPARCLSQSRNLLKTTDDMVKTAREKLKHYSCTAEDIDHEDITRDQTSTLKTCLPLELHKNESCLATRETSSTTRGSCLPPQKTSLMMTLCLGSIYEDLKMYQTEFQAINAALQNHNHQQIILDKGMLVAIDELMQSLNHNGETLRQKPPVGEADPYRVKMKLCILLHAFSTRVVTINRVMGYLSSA
Sequence of biotinylated mIL-12 (mIL-12a-AviTag-His6 and untagged mIL-12b) (mouse) (P43432 23-335, chain 2 of 2, further chain): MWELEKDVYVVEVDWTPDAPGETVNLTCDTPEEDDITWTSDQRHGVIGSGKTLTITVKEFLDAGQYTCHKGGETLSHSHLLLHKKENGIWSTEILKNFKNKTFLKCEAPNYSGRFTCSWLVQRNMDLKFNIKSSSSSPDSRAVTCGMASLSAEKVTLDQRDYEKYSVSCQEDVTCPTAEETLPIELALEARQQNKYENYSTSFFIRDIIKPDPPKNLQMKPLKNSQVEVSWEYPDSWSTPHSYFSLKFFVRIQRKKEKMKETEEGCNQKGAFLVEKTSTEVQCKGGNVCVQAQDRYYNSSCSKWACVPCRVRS
Sequence of mIL-12Rβ1_(D1-D2) (from mIL-12Rβ1_(D1-D2)-CASP3-AviTag-His6), analyte in BLI (domain or fragment) (Q60837 20-738): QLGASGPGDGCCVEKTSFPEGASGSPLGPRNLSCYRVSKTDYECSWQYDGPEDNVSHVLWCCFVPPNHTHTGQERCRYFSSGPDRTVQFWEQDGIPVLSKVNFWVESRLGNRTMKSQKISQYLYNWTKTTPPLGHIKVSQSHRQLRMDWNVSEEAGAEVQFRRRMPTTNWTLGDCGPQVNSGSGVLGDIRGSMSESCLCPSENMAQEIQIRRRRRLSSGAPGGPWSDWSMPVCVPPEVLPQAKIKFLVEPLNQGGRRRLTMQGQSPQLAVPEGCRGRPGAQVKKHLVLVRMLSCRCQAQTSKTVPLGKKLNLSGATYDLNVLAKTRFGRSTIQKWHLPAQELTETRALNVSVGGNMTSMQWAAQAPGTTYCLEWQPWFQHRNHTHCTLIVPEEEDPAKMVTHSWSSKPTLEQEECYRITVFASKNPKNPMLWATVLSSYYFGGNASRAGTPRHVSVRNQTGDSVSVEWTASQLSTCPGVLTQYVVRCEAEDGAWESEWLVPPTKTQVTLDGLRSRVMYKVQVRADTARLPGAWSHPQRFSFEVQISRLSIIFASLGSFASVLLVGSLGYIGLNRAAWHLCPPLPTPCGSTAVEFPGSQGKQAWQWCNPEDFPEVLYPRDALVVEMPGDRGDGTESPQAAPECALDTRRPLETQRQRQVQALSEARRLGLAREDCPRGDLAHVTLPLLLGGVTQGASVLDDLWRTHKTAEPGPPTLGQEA

With “mIL-12Rβ1_(D1-D2) (from mIL-12Rβ1_(D1-D2)-CASP3-AviTag-His6), analyte in BLI (domain or fragment)”, the fold higher affinity than the human counterparts (hIL-12 for hIL-12Rβ1) worked out at 10 fold.
